Test results as given in patent publication US20220112292A1.

target: CLEC12A/CLL1 (Homo sapiens) (UniProt Q5QGZ9); experiment: ELISA on plate coated with 1 ug/mL human CLEC12A; sdAb detected with mouse anti-myc mAb and goat anti-mouse IgG-HRP; Abs 450nm

Row | Binder | EC50 [pM]
1 | VHH clone 1B5 (VHH) VHH: QVQLQESGGGLVQAGGSLRLSCVVSGATSNVNAMGWYRQAPGKERELVAAISSGGSTSYRDSVKGRFTISRDNAKNTLYLQMNSLKPEDTAMYYCAAQDWATEGYEYDYWGQGTLVTVSS | 19500
2 | VHH clone 1G6 (VHH) VHH: QVQLQQSGGGLVQAGGSLRLSCAASGSIFAINEINLMGWYRQAPGKQRELVAACASDGNTYYADSVKGRFTISRDNAEKTVYLQMNNLKPDDTAVYYCDANSRGNYYSGQGTQVTVSS | 480
3 | VHH clone 1H1 (VHH) VHH: QVQLQESGGGLVQPGGSLRLSCAASGFTFNSYAMTWVRQAPGKGLEWVSDINSGGGSTNYADSVKGRFTISRDNAKNTLYLQMNSLKPEDTAVYYCATELRGSDYYRGPIREYAYWGQGTLVTVSS | 900

Further lines, results first:

Row | EC50 [pM] | Binder
4 | 650 | VHH clone 2F5 (VHH) VHH: QVQLQQSGGGLAQTGGSLILSCAASGSIFAINEINLMGWYRQAPGKQRELVAACASDGNTYYADSVKGRFTISRDNAEKTVYLQMNNLKPDDTAVYYCDANSRGNYYSGQGTQVTVSS
5 | 610 | VHH clone 2H3 (VHH) VHH: QVQLQESGGGLVQAGGSLRLSCVASGSIRSINVMGWYRQAPGKQRELVAACASDGNTYYADSVKGRFTISRDNAEKTVYLQMNNLKPDDTAVYYCDANSRGNYYSGQGTQVTVSS
6 | 1500 | VHH clone 2F3 (VHH) VHH: QVQLQAFGGGLVQPGGSLRLSCVVSGTMFSGKDVNWLRQAPGKHVEVVATVSSDGGTDYADFVKGRFTISRDDAKNTVNLQMNSLEPEDTANYMCHFLWGRHYWGQGTQVTVSS
